Source: paper PMC7102498

Molecular target: T1, QseB (Escherichia coli ECDCM2 (clinical bovine mastitis isolate)) (UniProt P52076)
T1 sequence: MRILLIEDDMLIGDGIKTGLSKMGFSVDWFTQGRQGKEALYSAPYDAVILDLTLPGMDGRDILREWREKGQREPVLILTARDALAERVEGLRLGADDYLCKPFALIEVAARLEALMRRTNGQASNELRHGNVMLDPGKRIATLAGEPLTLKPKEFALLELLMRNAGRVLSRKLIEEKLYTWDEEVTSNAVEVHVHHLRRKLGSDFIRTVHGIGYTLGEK
Assay: EMSA

With “ATGTTCGTGAATTTACAGGCGTTAGATTTACATACATTTGTGAATGTATGTACCATAGCACGACGATAATATAAACGCAGCAATGGGTTTATTAACTTTTGACCATTGACCAATTTGAAATCGGACACTCGAGGTTTACAT (double strand) [p-acrA promoter]” the binding was “no binding”.
